These results are taken from patent publication US11732048B2, “Anti-axl antagonistic antibodies” (BERGEN TEKNOLOGIOVERFØRING AS, priority 2016, dated 2023).

Entries after “also recorded” stand apart in the source; their conditions may differ.

In assay [1] the test system is Axl signalling (phosphorylation of Akt on Ser473) in HeLa cells. The assay can be described thus: Gas6-induced Axl downstream signalling, phospho-Akt (Ser473) Western blot. In kind it is cell-based, human. The settings on record: pre-incubation 1 μg/mL 1 hr, then mouse Gas6 10 μg/mL 20 min. The protocol:
The experiments were performed using human cervical cancer derived cell line HeLa (ATCC® CCL-2™). The cells were grown in T175 flasks to 80% confluency in MEM culture medium (Sigma) supplemented with 10% FBS, penicillin-streptomycin and L-glutamine. The cells were washed with PBS and detached by treatment with 0.25% Trypsin/EDTA (Sigma) followed by centrifugation and resuspension in fresh medium (MEM/0.5% FBS). The cells were seeded in Petri dishes (3×10^6 cells per dish) in MEM medium supplemented with 10% FBS. After three hrs incubation at 37° C., the cells were washed with PBS and kept in starvation medium (MEM/0.5% FBS) overnight. The cells were pre-incubated with anti-Axl antibody 10G5 at concentration 1 μg/mL for 1 hr followed by stimulation with Axl ligand, recombinant mouse Gas6 (R&D Systems), at concentration 10 μg/mL for 20 min. […] Detection with anti-GAPDH antibody (Millipore) was used as loading control.

In assay [2] the target is T1, rhAxl-Fc (binding of Gas6 / MAB154) (Homo sapiens, UniProt P30530).
T1 construct: Fc
Briefly: Biacore competitive binding study, MAb 10G5 as first sample (Example 6). The settings on record: rhAxl-Fc saturated with 10G5 (160 nM), second sample 25 μg/mL. The protocol: A competitive binding study was performed using Biacore 3000 instrument (GE Healthcare) and Binding Analysis wizard with several cycles of two samples injection. As a first sample, a saturating concentration of MAb 10G5 (160 nM or 24 μg/mL) was injected over the surface of a CM5 sensor chip coated with rhAxl-Fc (using amine coupling) for 3 min at flow rate of 30 μL/min followed by 2.5 min stabilization (HBS-EP buffer alone) before the injection of the second sample. The following second samples were used: recombinant human (rh) Gas6 (R&D Systems, Cat. no. 885-GS), recombinant mouse (rm) Gas6 (R&D Systems, Cat. no. 986-GS/CF) and a panel of anti-Axl antibodies, such as MAB154 (R&D Systems, Cat. no. MAB154), and 10G5; all at concentration 25 μg/mL. The second sample was injected for 3 min, followed by 2.5 min stabilization (buffer alone) and regeneration of the surface by 30 sec injection of a regeneration solution (10 mM HCl, 1 M NaCl) at flow rate 50 μL/min.
In general terms: Surface plasmon resonance follows binding to a sensor surface in real time, without labels.

For another assay, the system named is MDA-MB-231 cells. Briefly: Three-dimensional (3D) organotypic tumour mass model. Format: cell-based, human. As for the experimental part:
A highly aggressive triple-negative human breast cancer cell line MDA-MB-231 (ATCC® HTB-26™) was cultured according to recommended conditions in Dulbecco's Modified Eagle's Medium/Nutrient Mixture F-12 Ham medium supplemented with 10% foetal bovine serum (FBS), glutamine and penicillin and streptomycin. The cells were pre-treated in suspension for at least 1 hour at 37° C., to ensure proper binding of antibodies on the cell surface before they were placed in extracellular matrix. The cells cultures were observed every day and fresh treatments were done every other day. The antibodies were used at concentrations 50-100 μg/mL. Imaging of coverslip 3D assay (35 mm dish) was done on a NIKON light microscopy using both Phase contrast and Hoffman optics. Already at day 3, difference in growth of cells treated with MAb10G5 and cells treated with a control irrelevant IgG was observed.
MDA-MB-231 cells were grown on extracellular matrix and allowed to form the highly aggressive stellate shaped morphology. Stellate-shaped tumour masses were then treated with the control IgG and antibody 10G5, as described in EXAMPLE 7.

The subject of a further assay is Mv4-11 tumours. Briefly: Mv4-11 human AML xenograft in nude mice. Particulars: 30 mg/kg i.p. twice weekly, after three weeks of treatment, versus vehicle. Format: in vivo, mouse. As for the experimental part: To evaluate the anti-tumour activity of anti-Axl chimeric antibodies in a model of haematological cancer, we used a mouse xenograft model of human acute myeloid leukaemia (AML). The human AML Mv4-11 cells (ATCC #CRL-9591) cells were propagated in suspension in IMDM medium supplemented with 10% FBS, 2 mM L-Glutamine, 100 U/ml penicillin and 100 μg/ml streptomycin. Nude mice were implanted s.c. into the flank with 5×10^6 Mv4-11 cells resuspended in the mixture of serum-free IMDM medium and Matrigel (1:1). When the tumour size reached 200 mm^3 (Day 0 in FIG. 15), the animals were randomized and treated with either vehicle (sterile PBS) or anti-Axl chimeric antibody 10G5 at 30 mg/kg, by i.p. injections twice weekly for 4 weeks.

The test system of the next assay is A549 tumours. Briefly: A549 human NSCLC xenograft in mice (Examples 14, 16, 17, 18). Particulars: nude mice, 20 mg/kg i.p. twice weekly, after four weeks of treatment, versus vehicle. In kind it is in vivo, mouse. On the technique in general: In xenograft studies the graft and the host belong to different species.

Description for A549 tumours: SCID mice were implanted subcutaneously (s.c.) into the flank with 5×10^6 A549 cells resuspended in serum-free medium/Matrigel (1:1).

B1: murine 10G5: mouse monoclonal anti-human Axl antibody from hybridoma WR-10G5-E5; VH SEQ ID NO: 28, VL SEQ ID NO: 29 (antibody, listed as Mus musculus, V domains shown)
VH: QVQLQQSGAELVRPGASVKLSCKASGYSFTDFYINWVRQRPGQGLEWIARIFPGGDNTYYNEKFKGKATLTAEESSSTAYIQLSSLTSEDSAVYFCARRGLYYAMDYWGQGISVTVSS
VL: DVLMTQTPLSLPVSLGDQASISCRSSQSLVHSNGIPYLHWYLQKPGQSPKLLIYRVSNRFSGVPDRFSGSGSGTDFTLKISRVEAEDLGVYFCSQGTHVPPTFGGGTKLEIK
modifications: (1)..(118) Mus musculus 10G5 VH domain; (1)..(112) Mus musculus 10G5 VL domain
For the molecule B1, the “Gas6-induced phosphorylation of Akt on Ser473” value in assay [1] was “significantly reduces; also recorded: significantly be reduced”. In assay [2], the “Competition with MAB154 for Axl binding” value is recorded as “did no inhibit; also recorded: did not compete”; the “Inhibition of Gas6 (human and murine) binding to rhAxl” value is listed as “cannot be bound; also recorded: inhibited”. For the same molecule, in the assay with MDA-MB-231 cells (9-days old organoid masses treated 72 hours, versus control IgG), the “Effect on established stellate-shaped 3D tumour masses” value is reported as “caused degradation of stellate patterns”. For the same molecule, the “Growth and tumour mass development in extracellular matrix” value with MDA-MB-231 cells (antibody 50-100 μg/mL, day 6, versus control IgG) is “significantly inhibited growth and tumour mass development”.

B2: c10G5: chimeric (mouse variable/human constant) IgG1 antibody with the 10G5 VH and VL (antibody, V domains shown)
VH: QVQLQQSGAELVRPGASVKLSCKASGYSFTDFYINWVRQRPGQGLEWIARIFPGGDNTYYNEKFKGKATLTAEESSSTAYIQLSSLTSEDSAVYFCARRGLYYAMDYWGQGISVTVSS
VL: DVLMTQTPLSLPVSLGDQASISCRSSQSLVHSNGIPYLHWYLQKPGQSPKLLIYRVSNRFSGVPDRFSGSGSGTDFTLKISRVEAEDLGVYFCSQGTHVPPTFGGGTKLEIK
Take B2: the “Inhibition of Mv4-11 tumour growth” value in the assay with Mv4-11 tumours was “around 75%”. Besides, the “Inhibition of A549 tumour growth” value in the assay with A549 tumours is recorded as “around 40%”.
